Reference: IntAct's records for PubMed 28335037

B1: E3 ubiquitin-protein ligase LRSAM1 (Homo sapiens), Q6UWE0 (parent)
chain: MPLFFRKRKPSEEARKRLEYQMCLAKEAGADDILDISKCELSEIPFGAFATCKVLQKKVLIVHTNHLTSLLPKSCSLLSLATIKVLDLHDNQLTALPDDLGQLTALQVLNVERNQLMQLPRSIGNLTQLQTLNVKDNKLKELPDTVGELRSLRTLNISGNEIQRLPQMLAHVRTLEMLSLDASAMVYPPREVCGAGTAAILQFLCKESGLEYYPPSQYLLPILEQDGIENSRDSPDGPTDRFSREELEWQNRFSDYEKRKEQKMLEKLEFERRLELGQREHTQLLQQSSSQKDEILQTVKEEQSRLEQGLSEHQRHLNAERQRLQEQLKQTEQNISSRIQKLLQDNQRQKKSSEILKSLENERIRMEQLMSITQEETESLRRRDVASAMQQMLTESCKNRLIQMAYESQRQNLVQQACSSMAEMDERFQQILSWQQMDQNKAISQILQESAMQKAAFEALQVKKDLMHRQIRSQIKLIETELLQLTQLELKRKSLDTESLQEMISEQRWALSSLLQQLLKEKQQREEELREILTELEAKSETRQENYWLIQYQRLLNQKPLSLKLQEEGMERQLVALLEELSAEHYLPIFAHHRLSLDLLSQMSPGDLAKVGVSEAGLQHEILRRVQELLDAARIQPELKPPMGEVVTPTAPQEPPESVRPSAPPAELEVQASECVVCLEREAQMIFLNCGHVCCCQQCCQPLRTCPLCRQDIAQRLRIYHSS

Variants of: B1
Conditions: with ube2b_rabit UBE2B

| effect of a mutation on the interaction | Variant |
| --- | --- |
| disrupting interaction strength | P707L |
| with no effect | Q573K |
| disrupting interaction strength | C694Y |
